Source: US20050037449

Assays:
[1] = biological target: T1, c-Jun (1-79) expressed in E. coli as an N-terminal GST fusion protein, P05412
T1 chain: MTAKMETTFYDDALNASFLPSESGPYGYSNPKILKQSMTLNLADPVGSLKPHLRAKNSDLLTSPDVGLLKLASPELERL

[2] = biological target: glutathion S-transferase (GST) [GST: P08515]
[3] = biological target: human BMAL1 expressed in E. coli as an N-terminal GST fusion protein [GST: P08515]

B1: active form of human JNK3 (JNK3 α1) expressed as an N-terminal His-tagged protein (protein)
chain: MSLHFLYYCSEPTLDVKIAFCQGFDKQVDVSYIAKHYNMSKSKVDNQFYSVEVGDSTFTVLKRYQNLKPIGSGAQGIVCAAYDAVLDRNVAIKKLSRPFQNQTHAKRAYRELVLMKCVNHKNIISLLNVFTPQKTLEEFQDVYLVMELMDANLCQVIQMELDHERMSYLLYQMLCGIKHLHSAGIIHRDLKPSNIVVKSDCTLKILDFGLARTAGTSFMMTPYVVTRYYRAPEVILGMGYKENVDIWSVGCIMGEMVRHKILFPGRDYIDQWNKVIEQLGTPCPEFMKKLQPTVRNYVENRPKYAGLTFPKLFPDSLFPADSEHNKLKASQARDLLSKMLVIDPAKRISVDDALQHPYINVWYDPAEVEAPPPQIYDKQLDEREHTIEEWKELIYKEVMNSEEKTKNGVVKGQPSPSAQVQQ
[1]
  in vitro phosphorylation ([γ-32P]ATP kinase assay, SDS-PAGE, autoradiography): JNK3 did phosphorylate the GST-c-Jun (1-79) used as a positive control
[2]
  in vitro phosphorylation ([γ-32P]ATP kinase assay, SDS-PAGE, autoradiography): did not phosphorylate the GST
[3]
  in vitro phosphorylation ([γ-32P]ATP kinase assay, SDS-PAGE, autoradiography): The phosphorylation of GST-BMAL1 was observed in this experimental system
  in vitro phosphorylation with 0 ng, 14 ng, 28 ng and 70 ng of active JNK3: GST-BMAL1 was phosphorylated in a JNK3 dose-dependent manner

B2: human JNK2 (Upstate Biotechnology) (protein)
chain: MSDSKCDSQFYSVQVADSTFTVLKRYQQLKPIGSGAQGIVCAAFDTVLGINVAVKKLSRPFQNQTHAKRAYRELVLLKCVNHKNIISLLNVFTPQKTLEEFQDVYLVMELMDANLCQVIHMELDHERMSYLLYQMLCGIKHLHSAGIIHRDLKPSNIVVKSDCTLKILDFGLARTACTNFMMTPYVVTRYYRAPEVILGMGYKENVDIWSVGCIMGELVKGCVIFQGTDHIDQWNKVIEQLGTPSAEFMKKLQPTVRNYVENRPKYPGIKFEELFPDWIFPSESERDKIKTSQARDLLSKMLVIDPDKRISVDEALRHPYITVWYDPAEAEAPPPQIYDAQLEEREHAIEEWKELIYKEVMDWEERSKNGVVKDQPSDAAVSSNATPSQSSSINDISSMSTEQTLASDTDSSLDASTGPLEGCR
[3]
  in vitro phosphorylation, JNK2 added instead of JNK3: substantially not phosphorylated by any of JNK1 and JNK2 (which are members of the JNK family), and ERK2

B3: mouse ERK2 (New England Biolabs) (protein)
chain: MAAAAAAGPEMVRGQVFDVGPRYTNLSYIGEGAYGMVCSAYDNLNKVRVAIKKISPFEHQTYCQRTLREIKILLRFRHENIIGINDIIRAPTIEQMKDVYIVQDLMETDLYKLLKTQHLSNDHICYFLYQILRGLKYIHSANVLHRDLKPSNLLLNTTCDLKICDFGLARVADPDHDHTGFLTEYVATRWYRAPEIMLNSKGYTKSIDIWSVGCILAEMLSNRPIFPGKHYLDQLNHILGILGSPSQEDLNCIINLKARNYLLSLPHKNKVPWNRLFPNADSKALDLLDKMLTFNPHKRIEVEQALAHPYLEQYYDPSDEPIAEAPFKFDMELDDLPKEKLKELIFEETARFQPGYRS
[3]
  in vitro phosphorylation, ERK2 added instead of JNK3: substantially not phosphorylated by any of JNK1 and JNK2 (which are members of the JNK family), and ERK2

B4: human JNK1 (Upstate Biotechnology) (protein)
chain: MSRSKRDNNFYSVEIGDSTFTVLKRYQNLKPIGSGAQGIVCAAYDAILERNVAIKKLSRPFQNQTHAKRAYRELVLMKCVNHKNIIGLLNVFTPQKSLEEFQDVYIVMELMDANLCQVIQMELDHERMSYLLYQMLCGIKHLHSAGIIHRDLKPSNIVVKSDCTLKILDFGLARTAGTSFMMTPYVVTRYYRAPEVILGMGYKENVDLWSVGCIMGEMVCHKILFPGRDYIDQWNKVIEQLGTPCPEFMKKLQPTVRTYVENRPKYAGYSFEKLFPDVLFPADSEHNKLKASQARDLLSKMLVIDASKRISVDEALQHPYINVWYDPSEAEAPPPKIPDKQLDEREHTIEEWKELIYKEVMDLEERTKNGVIRGQPSPLAQVQQ
[3]
  in vitro phosphorylation, JNK1 added instead of JNK3: substantially not phosphorylated by any of JNK1 and JNK2 (which are members of the JNK family), and ERK2
